Key:
[1] = molecular target: T1, 重组SARS-CoV-2刺突蛋白胞外区 (extra cellular domain of spike protein, S-ECD) (SARS-CoV-2), P0DTC2; experiment: indirect ELISA, S-ECD coated at 1 μg/ml, end-point titre; conditions: remark: other sources report otherwise
[2] = molecular target: T1, 重组SARS-CoV-2刺突蛋白胞外区 (extra cellular …); experiment: SPR, Biacore 8K, S-ECD immobilised on a CM5 chip, antibody 125-7.8 nM; conditions: remark: other sources report otherwise

B1: FC05 (antibody)
chain 1: EVQLLEQSGAEVKKPGASVRVSCKVSGYTLPEVAMHWVRQAPGKGLEWMGGFDPEDGETIYAQKFQGRVTMTEDTSTDTAYMELSSLRSEDTAVYYCATTTPFSSSFWFDPWGQGTLVTVSS
chain 2: QSVLTQAPSVSGAPGQKVTISCSGSSSNIGNNYVSWYQQLPGTAPKLLIYDNNKRPSGIPDRFSGSKSGTSATLGITGLQTGDEADYYCGTWDSSLSAVVFGGGTKLTVL
Which results are given for B1?
抗体滴度 (dilution factor (1:x) from 1 mg/mL) [1]: 320000; Kd [2]: 0.1 nM
